Results reported in the Human Domainome abundance scans (Beltran et al. 2025).

B1: Zinc finger MYM-type protein 6, residues 427 to 504; numbered along this chain, O95789 (parent)
chain: KLKCQHCNHLFATKPELLFYKGKMFLFCGKNCSDEYKKKNKVVAMCDYCKLQKIIKETVRFSGVDKPFCSEVCKFLSA
B2: Far upstream element-binding protein 3, residues 75 to 150; numbered along this chain, Q96I24 (parent)
chain: RTVITEEFKVPDKMVGFIIGRGGEQISRIQAESGCKIQIASESSGIPERPCVLTGTPESIEQAKRLLGQIVDRCRN

Variants of: B1
Experiment: abundance fitness (aPCA) (normalised: wild type 0, dead -1); higher = more abundant; growth selection in yeast, the domain comes from the species named
Conditions: Homo sapiens

Abundance fitness: each site, then its substitutions
L17: F -0.168
G63: P -0.201 | L -0.315 | S -0.53
A78: V -0.292
H6: Q -0.098
K50: V -0.96 | Q 0.164 | N -0.23
N8: W -0.154 | M -0.009 | L -0.015 | R -0.02 | C -0.015
L2: S 0.031 | E 0.109
F25: H -0.109 | I -0.126 | G -0.028
C7: S -0.823 | V -1.11 | H -0.575
F61: A 0.209 | W 0.313 | M 0.979 | D 0.56 | P -0.308
D34: E -0.033 | N -0.527 | T -0.133

Variants of: B2
Experiment: as above
Conditions: Homo sapiens

Abundance fitness: each site, then its substitutions
R1: Y -0.126 | T 0.028 | E -0.062 | I -0.016 | L -0.079 | K 0.008 | F -0.059 | C 0.032 | H -0.034 | S -0.042 | P -0.236 | A -0.077 | V -0.043 | M 0.029 | G -0.042 | N 0.063 | D 0.022 | W -0.2
E7: Y -0.037 | K -0.01 | A -0.078 | I -0.048 | R -0.057 | H -0.002 | C -0.135 | L -0.048 | Q -0.072 | S -0.019 | P -0.136 | M -0.111 | D -0.02 | V -0.036 | G -0.083 | T -0.002 | F 0.088
T2: E 0 | I 0.038 | Q -0.003 | D -0.061 | W -0.133 | M -0.033 | H -0.06 | A -0.049 | Y -0.069 | C -0.114 | K 0 | P -0.106 | F -0.031 | G 0 | L -0.05 | R 0.014 | V -0.035
F8: S -0.18 | P -0.651 | Y -0.024 | N -0.353 | C -0.317 | Q -0.34 | L -0.097 | V -0.064 | W -0.027 | D -0.208 | K -0.397 | M -0.083 | E -0.351 | H -0.173 | T -0.042 | R -0.543
T5: E -0.043 | R -0.063 | I -0.231 | Y -0.164 | Q -0.099 | F -0.201 | H -0.071 | C -0.203 | D -0.204 | S -0.082 | W -0.192 | V -0.09 | G -0.3 | L -0.314 | K -0.068 | P -0.394
E6: Q -0.068 | S -0.042 | M -0.103 | P -0.807 | N -0.242 | V -0.051 | W -0.375 | D -0.084 | K -0.018 | Y -0.145 | T -0.06 | G -0.19 | C -0.022 | R -0.099 | I -0.111 | F -0.16 | A -0.067 | H -0.09 | L -0.235
I4: G -0.14 | S -0.141 | Y -0.006 | E -0.059 | Q -0.087 | F -0.095 | H -0.146 | L -0.081 | A -0.122 | T -0.045 | K -0.035 | C -0.092 | R -0.065 | N -0.081 | W -0.125 | V -0.047
V3: M -0.037 | Y -0.053 | W -0.106 | N 0.073 | H -0.155 | P -0.117 | G -0.166 | R -0.085 | E -0.029 | F -0.066 | T -0.098 | C -0.081 | A -0.064 | L -0.007 | D -0.111 | I 0.044 | K -0.001 | Q -0.084
